Data published in patent publication US8501487B2, “Composition for use as a peptide retention standard and a method of predicting peptide hydrophobicity in liquid chromatography” (University of Manitoba, priority 2008, dated 2013).
Read-outs that look alike come from different tables or passages of the source.

Experiments:
[1] = Isocratic RP HPLC: log k vs φ plots, UHI (acetonitrile concentration at k=10) and S slope; assay type: physicochemical; details: for S value (slope in LSS equation): isocratic, TFA, pH 2; for UHI 100 Å C18 − TFA / UHI 100 Å C18 − FA / UHI 300 Å C18 − TFA / UHI 100 Å C18 − pH 10: acetonitrile concentration (ACN %) at k=10, isocratic, in %; for UHI 100 Å C18 − TFA: 0.1% TFA; for UHI 100 Å C18 − TFA / UHI 100 Å C18 − FA / UHI 300 Å C18 − TFA: ~25° C.; for UHI 100 Å C18 − FA: 0.1% formic acid; for UHI 300 Å C18 − TFA: Vydac 218 TP C18, 0.1% TFA; for UHI 100 Å C18 − pH 10: XTerra C18, 20 mM ammonium formate pH 10, ~25° C.
From the text: Accordingly, in a further embodiment of the present disclosure there is included, a method of predicting hydrophobicity of a peptide: • (a) measuring retention time for each peptide of a standard peptide mixture at three or more different concentrations of acetonitrile under isocratic conditions; • (b) calculating a retention coefficient k for each peptide in the mixture and at each concentration of acetonitrile using equation (2) k=(tR−tO)/TOc (2) • wherein • tR is the retention time, • tO is system dead time, and • TOc is column dead time; • (c) for each peptide in the mixture, plotting log k vs φ, wherein φ is the acetonitrile volume fraction; • (d) for each peptide in the mixture, determining the value of φ when log k=1 and converting this to acetonitrile concentration to provide a universal hydrophobicity index (UHI); • (e) plotting retention times of each peptide vs its UHI; • (f) determining the retention time of an unknown peptide under the isocratic liquid chromatographic conditions; and • (g) determining from the plot in (e) the value of UHI that corresponds to the retention time of the unknown peptide, • wherein the UHI correlates to the hydrophobicity of the unknown peptide.
Two chromatographic setups: micro-flow 3 μl/min and “semi-micro” at 150 μl/min were employed utilizing a micro-Agilent 1100 Series system (Agilent Technologies, Wilmington, Del.) with two column sizes: 300 μm×150 mm (micro) and 1 mm×100 mm (semi-micro). The three stationary phases studied included: Vydac 218 TP C18, 300 Å pore size, 5 μm (Grace Vydac, Hesperia, Calif.); Luna C18(2) 100 Å, 5 μm (Phenomenex, Torrance, Calif.) and XTerra C18, 120 Å, 5 μm (Waters, Milford, Mass.). Three different ion-pairing systems with linear water-acetonitrile gradients were employed: 0.1% trifluoroacetic acid (TFA) in both eluents A and B (Vydac and Luna), 0.1% formic acid (FA, Luna) and 20 mM ammonium formate pH 10 (XTerra). This provided us with four different mobile/stationary phase combinations corresponding to four versions of SSRCalc model: 100 and 300 Å for TFA, 100 Å with FA and 100 Å at pH 10. Gradient separations of the 6-peptide mixture in “semi-micro” flow mode were performed in all four systems using 0.5, 1, 2 and 4% acetonitrile per minute gradient slopes.
Stock solutions of the 6 custom peptides (˜1 mg/ml) were prepared by dissolving in 1 ml of 0.1% TFA in water (20% acetonitrile for peptides #5 and 6). Ten microliters sample injection was applied for “semi-micro” conditions in both isocratic and gradient modes. Individual peptides, their mixture and the S1-S5 retention standard were diluted to provide ˜0.5-1 μg injection of each component. 214 nm UV detection was used. All chromatographic experiments were conducted at room temperature, ˜25° C. Dead volume of the column and connecting tubings was measured using injection of non-retained compound (water) and measuring elution time of negative peak. Retention coefficients for isocratic elution were calculated using the formula: k=(tR−t0)/t0c; where tR is retention time, t0 and t0c—system (column and tubings) and column dead time.
Since accurate measurement of ACN % hydrophobicity using gradient elution is problematic it is proposed to use isocratic conditions for this purpose. […] This confirms once again that peptides elute from reversed-phase sorbents within a very narrow range of acetonitrile concentration. It is clear as well that the slope of these dependencies decrease systematically as peptide hydrophobicity increase. This is the reason for narrowing ACN percentage scale for shallow gradients in FIG. 2.
It is proposed to use acetonitrile concentration at which the capacity factor of any given peptide is equal to 10 (at room temperature ˜25° C.) as a measure of peptide hydrophobicity. This value is referred to herein as peptide Universal Hydrophobicity Index (UHI), since it depends only on type of the sorbent and ion-pairing modifier. […]

[2] = rhGH tryptic digest, literature data; cited from earlier work
[3] = Gradient RP HPLC: acetonitrile concentration at elution and ACN % range covered; assay type: physicochemical; details: gradient conditions (FIG. 2c), Luna C18(2), 0.1% TFA, gradient delay time 4.3 min taken into account
From the text: A one percent per minute acetonitrile gradient starting from 0% was used for all separations. The retention time difference between first and last peaks on chromatograms gives direct indication of ACN % scale covered. […] Such wide coverage is very important, especially for nano- and micro-flow proteomics LC applications. While normal-flow gradient system technology is well established, in nano scale LC gradient reproducibility is harder to achieve. The correct retention time distribution of the standard peptides of the present disclosure confirms the proper development of the gradient, especially at the beginning of the chromatogram. Also note the uniform distribution of the six peaks of the peptide composition of the present disclosure throughout the chromatogram; such uniformity is rarely observed in standard peptide mixtures derived from protein digests. […]
Stock solutions of the 6 custom peptides (˜1 mg/ml) were prepared by dissolving in 1 ml of 0.1% TFA in water (20% acetonitrile for peptides #5 and 6). […] Dead volume of the column and connecting tubings was measured using injection of non-retained compound (water) and measuring elution time of negative peak. Retention coefficients for isocratic elution were calculated using the formula: k=(tR−t0)/t0c; where tR is retention time, t0 and t0c—system (column and tubings) and column dead time. […]

Substance | S value (slope in LSS equation) ([1]; Luna C18(2)) | UHI 100 Å C18 − TFA ([1]; Luna C18(2)) | UHI 100 Å C18 − FA ([1]; Luna C18(2)) | UHI 300 Å C18 − TFA [1] | UHI 100 Å C18 − pH 10 [1] | S value (slope in LSS equation) [2] | acetonitrile concentration at k=10 ([1]; isocratic conditions, Luna C18(2), TFA (FIG. 3)) [%] | concentration of acetonitrile required for elution [3] [%]
ALILTLVS [peptide purchased from Bachem, singly charged at pH 2, reference compound] | 13.47 |  |  |  |  |  |  | 
LLGGGGDFR [custom synthesized standard peptide] |  | 15.53 | 8.55 | 13.35 | 13.65 |  |  | 
LGGGGGGDFR [custom synthesized standard peptide] |  | 10.74 | 4.58 | 8.40 | 6.80 |  |  | 
LGGGGGGDGSR [custom synthesized standard peptide] |  | 3.97 | <0 | 1.89 | 1.14 |  |  | 
QTYSK [Peptide T14, tryptic digest product of recombinant human growth hormone] |  |  |  |  |  | 24.3 |  | 
LLLLDFR [custom synthesized standard peptide] | 14.69 | 26.07 | 18.26 | 24.78 | 24.18 |  | 26.1 | 29.6
LLLGGDFR [custom synthesized standard peptide] |  | 20.72 | 13.08 | 18.90 | 18.29 |  |  | 
LLLLLDFR [custom synthesized standard peptide] |  | 29.58 | 21.59 | 28.60 | 28.94 |  |  | 
ISLLLIQSWLEPVQFLR [Peptide T9, tryptic digest product of recombinant human growth hormone] |  |  |  |  |  | 18.5 |  | 
